The target of one experiment is T1, natriuretic peptide receptor on C3H10T1/2 cells (Mus musculus, UniProt Q6VVW5).
T1 construct: endogenous in cells; host or cells: C3H10T1/2 cells
T1 sequence (Q6VVW5 23-1047 limits assumed): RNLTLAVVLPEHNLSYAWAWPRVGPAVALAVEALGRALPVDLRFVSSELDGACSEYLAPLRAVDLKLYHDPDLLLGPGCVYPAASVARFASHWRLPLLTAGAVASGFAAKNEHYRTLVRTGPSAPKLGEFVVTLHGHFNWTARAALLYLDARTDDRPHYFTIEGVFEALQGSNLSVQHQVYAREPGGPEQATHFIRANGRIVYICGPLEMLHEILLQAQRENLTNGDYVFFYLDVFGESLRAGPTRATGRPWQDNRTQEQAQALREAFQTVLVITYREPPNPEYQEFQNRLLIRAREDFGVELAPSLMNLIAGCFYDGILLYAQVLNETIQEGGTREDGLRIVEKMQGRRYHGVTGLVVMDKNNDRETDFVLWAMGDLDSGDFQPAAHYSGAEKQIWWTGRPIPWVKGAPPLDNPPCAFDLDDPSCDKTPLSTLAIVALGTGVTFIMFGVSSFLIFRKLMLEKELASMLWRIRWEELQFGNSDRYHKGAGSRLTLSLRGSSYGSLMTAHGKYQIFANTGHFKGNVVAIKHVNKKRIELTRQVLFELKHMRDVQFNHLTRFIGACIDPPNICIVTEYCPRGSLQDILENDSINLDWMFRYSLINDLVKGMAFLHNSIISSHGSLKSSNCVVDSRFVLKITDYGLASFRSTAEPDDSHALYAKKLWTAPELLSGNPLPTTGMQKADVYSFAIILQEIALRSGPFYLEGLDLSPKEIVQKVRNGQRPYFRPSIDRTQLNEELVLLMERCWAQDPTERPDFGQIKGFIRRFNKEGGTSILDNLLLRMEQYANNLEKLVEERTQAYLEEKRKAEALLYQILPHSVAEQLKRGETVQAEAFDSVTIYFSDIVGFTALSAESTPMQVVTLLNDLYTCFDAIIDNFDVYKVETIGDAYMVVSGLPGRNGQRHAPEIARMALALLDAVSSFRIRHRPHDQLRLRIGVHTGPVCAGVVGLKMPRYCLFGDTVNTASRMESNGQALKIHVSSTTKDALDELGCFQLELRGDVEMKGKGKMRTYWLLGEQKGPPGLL
In words: Biotrak enzyme immunoassay of cGMP elicited on C3H10T1/2 cells. Format: cell-based.
Details: not given
On the procedure: All peptide variants were analyzed for activity using the Biotrak enzyme immunoassay (EIA, Amersham) that measures the amount of secondary messenger, cyclic GMP (cGMP), elicited after activation of the natriuretic peptide receptor by the peptide on C3H10T1/2 cells. Amino acid substitutions are marked in bold and underlined. The assay was performed for CNP and variants at a concentration of 10^−6 M. The values are given as the percent of relative binding compared to CNP, where CNP 1-22 and CNP 5-22 yield 100% binding.
Regarding “C F G L K L D R I G S M S G L G C (CFGLKLDRIGSMSGLGC) [SEQ ID NO:2]”, the “activity in cGMP assay (in words)” value is “active”.

The same experiment, now with this note: Table 2; cGMP assay, compared to CNP.
Take “C A G L K L D R I G S M S G L G C (CAGLKLDRIGSMSGLGC; peptide variant) [SEQ ID NO:6]”: the “cGMP response as percent of CNP” value is reported as 43.8%.

For the sequence “C F G L K L A R I G S M S G L G C (CFGLKLARIGSMSGLGC; peptide variant) [SEQ ID NO:7]”, the “cGMP response as percent of CNP” value is recorded as 49.1%.

With “C F G L K L D A I G S M S G L G C (CFGLKLDAIGSMSGLGC; peptide variant) [SEQ ID NO:8]”, the “cGMP response as percent of CNP” value is reported as 18.4%.

For “C F G L K L D R A G S M S G L G C (CFGLKLDRAGSMSGLGC; peptide variant) [SEQ ID NO:9]”, the “cGMP response as percent of CNP” value is 11.5%.

Take “C F G L K L D R I G - - - - - - C (CFGLKLDRIGC; peptide variant) [SEQ ID NO:22]”: the “cGMP response as percent of CNP” value turned out to be 4.2%.

On to “C F G L K L D R I G A M - - - - C (CFGLKLDRIGAMC) [SEQ ID NO:17]”, for which the “cGMP response as percent of CNP” value amounted to 3.4%.

On to “C F G L K L D R I G A Q - - - - C (CFGLKLDRIGAQC; peptide variant) [SEQ ID NO:19]”, for which the “cGMP response as percent of CNP” value came to 3.8%.

Regarding “C F G L K L D R I G A Q S - - - C (CFGLKLDRIGAQSC; peptide variant) [SEQ ID NO:15]”, the “cGMP response as percent of CNP” value is given as 20.6%.

As for “C F G L K L D R I G S - - - - - C (CFGLKLDRIGSC; peptide variant) [SEQ ID NO:21]”, the “cGMP response as percent of CNP” value was 22.7%.

“C F G L K L D R I G S M - - - - C (CFGLKLDRIGSMC; peptide variant) [SEQ ID NO:16]”: the “cGMP response as percent of CNP” value is recorded as 17.3%.

For “C F G L K L D R I G S M S - - - C (CFGLKLDRIGSMSC; peptide variant) [SEQ ID NO:14]”, the “cGMP response as percent of CNP” value stood at 29.9%.

As to “C F G L K L D R I G S M S G L G C (CFGLKLDRIGSMSGLGC) [SEQ ID NO:2]”, the “cGMP response as percent of CNP” value turned out to be 127.4%.

“C F G L K L D R I G S Q - - - - C (CFGLKLDRIGSQC; peptide variant) [SEQ ID NO:18]”: the “cGMP response as percent of CNP” value was 11.8%.

The experiment is the same for the next values; noted with them: Table 3; cGMP values at 10^-6 M, compared to CNP (CNP 1-22 and CNP 5-22 = 100%).
Regarding “C A G L K L A R I G S A S G L G C (CAGLKLARIGSASGLGC; peptide variant) [SEQ ID NO:27]”, the “cGMP response as percent of CNP” value is −10.355%.

In the case of “C A G L K L A R I G S M S G L G C (CAGLKLARIGSMSGLGC; peptide variant) [SEQ ID NO:24]”, the “cGMP response as percent of CNP” value was −5.848%.

Regarding “C A G L K L D R I G S A S G L G C (CAGLKLDRIGSASGLGC; peptide variant) [SEQ ID NO:25]”, the “cGMP response as percent of CNP” value came out at 3.933%.

On to “C F G A K L D R I G S M S G L G C (CFGAKLDRIGSMSGLGC; peptide variant) [SEQ ID NO:40]”, for which the “cGMP response as percent of CNP” value is on record as 20.154%.

With “C F G I K L D R I G S M S G L G C (CFGIKLDRIGSMSGLGC; peptide variant) [SEQ ID NO:41]”, the “cGMP response as percent of CNP” value worked out at 47.395%.

For “C F G L K A D R I G S M S G L G C (CFGLKADRIGSMSGLGC; peptide variant) [SEQ ID NO:45]”, the “cGMP response as percent of CNP” value is 11.259%.

“C F G L K I D R I G S M S G L G C (CFGLKIDRIGSMSGLGC; peptide variant) [SEQ ID NO:46]”: the “cGMP response as percent of CNP” value is on record as 88.117%.

“C F G L K L A R I G S A S G L G C (CFGLKLARIGSASGLGC; peptide variant) [SEQ ID NO:26]”: the “cGMP response as percent of CNP” value is recorded as 5.755%.

As to “C F G L K L D H I G S M S G L G C (CFGLKLDHIGSMSGLGC; peptide variant) [SEQ ID NO:48]”, the “cGMP response as percent of CNP” value turned out to be 13.482%.

“C F G L K L D K I G S M S G L G C (CFGLKLDKIGSMSGLGC; peptide variant) [SEQ ID NO:49]”: the “cGMP response as percent of CNP” value is given as 21.543%.

As for “C F G L K L D Q I G S M S G L G C (CFGLKLDQIGSMSGLGC; peptide variant) [SEQ ID NO:50]”, the “cGMP response as percent of CNP” value is 11.953%.

Take “C F G L K L D R I G A M S G L G C (CFGLKLDRIGAMSGLGC; peptide variant) [SEQ ID NO:54]”: the “cGMP response as percent of CNP” value worked out at 54.469%.

“C F G L K L D R I G G M S G L G C (CFGLKLDRIGGMSGLGC; peptide variant) [SEQ ID NO:55]”: the “cGMP response as percent of CNP” value is given as 27.811%.

As to “C F G L K L D R I G N M S G L G C (CFGLKLDRIGNMSGLGC; peptide variant) [SEQ ID NO:57]”, the “cGMP response as percent of CNP” value is recorded as 27.430%.

Regarding “C F G L K L D R I G S G S G L G C (CFGLKLDRIGSGSGLGC; peptide variant) [SEQ ID NO:69]”, the “cGMP response as percent of CNP” value is 62.117%.

Turning to “C F G L K L D R I G S H S G L G C (CFGLKLDRIGSHSGLGC; peptide variant) [SEQ ID NO:66]”, the “cGMP response as percent of CNP” value is 66.222%.

For “C F G L K L D R I G S K S G L G C (CFGLKLDRIGSKSGLGC; peptide variant) [SEQ ID NO:67]”, the “cGMP response as percent of CNP” value is reported as 66.910%.

With “C F G L K L D R I G S M S A L G C (CFGLKLDRIGSMSALGC; peptide variant) [SEQ ID NO:58]”, the “cGMP response as percent of CNP” value amounted to 53.649%.

For the sequence “C F G L K L D R I G S M S G A G C (CFGLKLDRIGSMSGAGC; peptide variant) [SEQ ID NO:63]”, the “cGMP response as percent of CNP” value was −1.111%.

On to “C F G L K L D R I G S M S G G G C (CFGLKLDRIGSMSGGGC; peptide variant) [SEQ ID NO:64]”, for which the “cGMP response as percent of CNP” value is reported as −10.145%.

Turning to “C F G L K L D R I G S M S G L G C (CFGLKLDRIGSMSGLGC) [SEQ ID NO:2]”, the “cGMP response as percent of CNP” value was 100.000%.

“C F G L K L D R I G S M S G M G C (CFGLKLDRIGSMSGMGC; peptide variant) [SEQ ID NO:62]”: the “cGMP response as percent of CNP” value is recorded as 51.286%.

With “C F G L K L D R I G S M S G Q G C (CFGLKLDRIGSMSGQGC; peptide variant) [SEQ ID NO:61]”, the “cGMP response as percent of CNP” value was −3.474%.

With “C F G L K L D R I G S M S K L G C (CFGLKLDRIGSMSKLGC; peptide variant) [SEQ ID NO:60]”, the “cGMP response as percent of CNP” value was 49.202%.

For the sequence “C F G L K L D R I G S M S L L G C (CFGLKLDRIGSMSLLGC; peptide variant) [SEQ ID NO:59]”, the “cGMP response as percent of CNP” value turned out to be 15.289%.

As for “C F G L K L D R I G S S S G L G C (CFGLKLDRIGSSSGLGC; peptide variant) [SEQ ID NO:68]”, the “cGMP response as percent of CNP” value turned out to be 62.531%.

For “C F G L K L D R I G S W S G L G C (CFGLKLDRIGSWSGLGC; peptide variant) [SEQ ID NO:65]”, the “cGMP response as percent of CNP” value amounted to 66.450%.

As to “C F G L K L D R I G T M S G L G C (CFGLKLDRIGTMSGLGC; peptide variant) [SEQ ID NO:56]”, the “cGMP response as percent of CNP” value is listed as 74.080%.

For “C F G L K L D R L G S M S G L G C (CFGLKLDRLGSMSGLGC; peptide variant) [SEQ ID NO:51]”, the “cGMP response as percent of CNP” value was determined as 14.177%.

Regarding “C F G L K L D R T G S M S G L G C (CFGLKLDRTGSMSGLGC; peptide variant) [SEQ ID NO:53]”, the “cGMP response as percent of CNP” value is given as −1.945%.

In the case of “C F G L K L D R V G S M S G L G C (CFGLKLDRVGSMSGLGC; peptide variant) [SEQ ID NO:52]”, the “cGMP response as percent of CNP” value is reported as 27.103%.

Staying with this experiment, now noted: Table 3; cGMP values at 10^-6 M, compared to CNP (CNP 1-22 and CNP 5-22 = 100%); listed as CNP 5-22.
“C F G L K L D R I G S M S G L G C (CFGLKLDRIGSMSGLGC) [SEQ ID NO:2]”: the “cGMP response as percent of CNP” value turned out to be 100%.

Staying with this experiment, now noted: listed as SEQ ID NO: 2.
On to “C F G L K L D R I G S M S G L G C (CFGLKLDRIGSMSGLGC) [SEQ ID NO:2]”, for which the “activity in cGMP assay (in words)” value is “as active as the native CNP1-22”.

The record behind these values is patent US7276481B2, “Method and composition for treatment of skeletal dysplasias” (ProChon Biotech Ltd., priority 2001, dated 2007).
